In patent US20110002937A1 (THOMAS JEFFERSON UNIVERSITY, published 2011):

Molecular target: recombinant 50 kD C-terminal BoNT/A domain (HC50A) (Clostridium botulinum, UniProt P0DPI0 871-1296)
Sequence (P0DPI0 871-1296 limits assumed): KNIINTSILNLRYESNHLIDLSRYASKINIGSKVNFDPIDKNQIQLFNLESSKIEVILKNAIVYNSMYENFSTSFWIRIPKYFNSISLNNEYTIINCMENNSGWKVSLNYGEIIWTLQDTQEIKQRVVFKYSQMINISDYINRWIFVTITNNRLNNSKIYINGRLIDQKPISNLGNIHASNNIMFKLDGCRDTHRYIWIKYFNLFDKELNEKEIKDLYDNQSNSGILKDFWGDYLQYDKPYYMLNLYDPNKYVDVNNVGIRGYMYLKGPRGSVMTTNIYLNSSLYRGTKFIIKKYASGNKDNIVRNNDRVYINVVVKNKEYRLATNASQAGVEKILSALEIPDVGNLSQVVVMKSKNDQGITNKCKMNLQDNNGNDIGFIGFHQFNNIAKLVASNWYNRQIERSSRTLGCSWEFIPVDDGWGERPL

B1: 6A antibody (human monoclonal IgG secreted by hybridoma 6A, ATCC accession no. PTA-8870) (antibody, V domains shown)
VH: EVQLVESGGGVVKPGGSLRLSCTAFGFTFEDFGMHWVRQAPGKGLEWVSLVSGEGGSKYYADSVKGRFTISRDNKKHSLYLHMNSLKTEDTALYYCAKDVWTYHYDSSGYQYYYGMDVWGQGTTVTVSS
VL: QEPAVSVALGQTVRITCQGDSLRSYSASWYQQRPGQAPLFVMYGKDKRPSGIPDRFSGSASGNTASLTITGAQAEDEADYYCNCRDSSNQYWIFGGGTKVTVL
With B1 the Kd was 6.9 pM and the kon was 440000 M⁻¹ s⁻¹.
